Source: the domain aggregation screens of Martell et al. (2025)

Assay: soluble fraction after stress (log2 fold change); higher = more stays soluble; pooled small domains, quantitative proteomics
Conditions: stress: 50 degC
Summary of the method: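 Pooled custom libraries of small protein domains were each held under stress at 50°C. The read-out, high-throughput quantitative proteomics, tracked how much of each protein stayed soluble. This is reported as a base-two log fold change used to indicate aggregation propensity. Higher values mean more protein remains in solution.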

Sequence | soluble fraction (log2)
HMEDLGYVKVASQTAAIRKSAAVQAGQIGTVHEGETYRYLGEEEGWYLVEYNGQKAYISWDDGEL | -0.119
HMIGKLTSSKLAAIHKMKTNELLAHFTEKGFLNINDAGKYILTQQGKDVGAEFKTSQYGGYFLWPENIE | -0.841
HMKMLSIQRREAIRALLLEKESITIAEVMEKFQISVETARRDFDALADEGFLNKVYGGATLKK | -1.37
HMGTYSKQDLLQLIGRYPDGIGKREINLAFSKGTKIRNLLNIELNELLNERLITLSQGGLYIKP | -1.56
HMGAARVTPLYNLRLREGPSTATARLDVVPRGTTLEVRAWDETGDWAQVEYRGQIGWIAAWLAEVEGEAP | -0.136
HMEDVTLSLVVGEDLDGERLDVFLTWKLDRTRSQVQALIRDGKVRLEQGQRARPSMVVRSGMGISVSLEPR | -1.49
HMRKTLASTAYDSIKAGIVSGEINNNLLLSENTLAKILNMSRTPIREAIKRLEAESYLKSVDGVGLIVQE | -0.211
HMGYSDEIGEFIKKLRTENHLTQKEFADKYGVTYQAVSKWENGKNLPDMSLIKQMSEDFNIGIDELLDGEK | -0.00754
HMSFGWESLENKEGVADTDLHPSGWVRIEDSRIFVVSEGDFINKGSKVTVLTVDGNRVVVRELI | -0.522
HMGGNDALEIAKSNPQVIEVLGEPVTKDGMGSYSVNYKNGHKTSEATIPIEGPNGTATLHVKTSGSDDAL | 0.261
HMNSNLSLTSYEEKIFFLLEKEKNLDELILESSFKAGEILSILMDLEIKHAIVSIPGGKYRRK | -2.84
HMQTKNYVYFNNTENWSTVNVYVWSSKDSTYMSWPGKAMESIGNNTYRFELPNGAEYAIFNNGSAQTVD | -0.137
HMSSRLEIEITSKIDDLSHTWRAVGAKQPKGNIKSSLLPSGVKVGETFRVEADFLLDGIEIVSVLPP | -1.44
HMLENYEGFKQKILKLTGIDLSSYKERQMRRRIDSLIHRNNYDDYDEYFKALTQNSNLYDEFINYLTI | -0.539
HMSEIKDRLREARRNKGLSQAGLSKLLGVSQASIAAIESGRNKRPTNLVSIAKALDVSPYWLETGK | -0.124
HMQGATVYIKSDDIGKTTNEQGSFNFDKLKKNRYTLEISFIGYETKNLQAYTDRENIVQLNRKS | 0.248
HMTANTQVENIRLELQRYMDEHGISQVTVARGIGKTHPVISQFLNNKYPGDVEEVARAIESWLTKQHEKAA | -0.0876
HMSIQREIILEVIKNNRTHPTAEEIYILVTKKEPKISRSTVYRNINILVEKGIIEKITIATGPDRYDY | -1.4
HMKEINFTIEESAKGRLDKVIAENVADLTRSQVQSLIKKGQILVNDAPTTNRYQVKPNDQVIIKLPDPV | 0.339
HMFTLDIGTIIRNRRLELNLTLEEIGNAVGVSKSTVQKWENGFISNMKRDKISALAKVLNINPVTLITGEY | -1.12
HMFFFILNKGAKSGGEITHAVLNGSIVSKPAGWDAFHGLVLAKEKLSSEEIQRQMKELGVEMEIVPL | -0.58
HMGGYLIGDVAQMVGLSRDALRFYEKKGIIRADKKENGYRYYSEDDIYRLMYILYHRKMNTSLEEIGGLMS | -0.739
HMDDKVGKVFNYVQEKILTGEWDIGDKITPEISLSKELGVSRSVVREAIKKFVALNILSRTQGGGTYVNNL | -0.515
HMQVTEVDYGTFMKMVEEKNVGEVEVGNSMIVFTDKDGKAIYKTGAMNDPNLTERLYNAGASFTKE | 0.0396
HMPVNGEFIERIKVMVLENKAKGKKERLTKTRMHQLLQEEGYKGSYSAFTHQVRIIEEELGVNQKEAH | -0.0836
HMVGNEEALRAIVESIIAQNTTEVASFREGKEGLIGWFLGQVMRQTGGKADPKLARQILLELLKQ | -0.242
HMNVDSLIGQTARVIVDINNNDSIGYALVGGQEWTARAENDNDIIPKDTLVEIVGVSGVKLIVRRKE | -0.044
HMNPMRYLVVPSQETETWKEYLVSKEWLERKYRIETEGDNRAIPLSNLFPKIVPIELSNLEIIEKEAFS | -0.24

Sequence | soluble fraction (log2)
HMQLKFTDLRKEILRMIWEGHGPQKAYDLLNKLQQTNPSAKPATVYRALDFLIGNGFIHKVASLNAFVG | -0.668
HMKPVPPLNGTSLRDLALGYAGRYATTAARLKHYLQRKLRERGWGGEDEPDLDGLVARLVELGYVNDEVF | -0.102
HMAGAPANLAARLREQILQGAYHDGQRLPAERHLAAEHGVSRGTVREALRLLEQGALLTRKRGSGSYVTYP | -0.314
HMTAVPADVETVTGFTALDRAGLDTLLARLGLAMDLEDLSFLQAYFRDTERRDPTLTEIRVVDTYWSDH | -1.38
HMDRWTPLVVAVLSRGSHRFGELRAAIGGITPKVLTDTLRSMERDGLITRDQAPGVPPRVDYALTPLGS | -1.12
HMEYDEVVVVKQIIPKGKNTMVAHLKHLKEHGETGFLKQAVGYLKLHASEIPFSVDAVISEVH | -0.361
HMNALREVNTSILNVRSGAGTNYSKIGSLTQATRVSVISESNGWSKINYNGKVGYVSSQYLS | -0.502
HMPTQGELAILRVLWEQGPSTVRAVWEKLNSQSGTGYTTALKLMQIMAQKGLVSRDESQKTHVYRA | -1.42
HMGVGIEALAVEVDRIRQVLTGGGALSDIQLFSQLKALGEVKTALSSMTDPRARELEKRVAQLLEASLRT | -0.0594
HMGTVQSVDRALLLLSEIGREPGGLVDLSTRVRLATSTTGRILATLEHAGAVVRGDDGIYHIGPLVHGMVS | -0.839
HMRFKPLAEILAAVQTRYAGRVLDVELDRDQAGRNVYEVKLLAADGSRREIHIDAVTGKEVSL | -0.0325
HMRSFADEGTVEEWIKQAIRENEAAVADYRKGKETAVKFLMGQVMRLSKGEANPADLEDKIKAKLD | 0.0903
HMSIYDAPIEDLKFSTRIFNSLKRADIHTVADLIAHSRDDLMKVRNLGATSLDELIEKLGTHGLQLADP | -0.254
HMSKHATLLEALADLSVKLKPHSQLPSERALSEEYGVSRMTLRRAIDVLQARGYIYSVPSKGLFVSEP | -1.74
HMQDYYTQSDFARYLEDKGIHFPQNKIAVYRKRGKFPKEDLVVAGTPYWSKYTVESFAKHLLEQQN | 0.0719
HMSNWYKNNETDQIWWKDTPDSVGEWLFSFDKKQVFNMFADYPHNLTPEQKKIFDEENPEWSDRP | -0.328
HMGNSRNDQDLQTQIIKILAEGPASSRTLIETLTIEDEAALLKTLKRLLMNKKISLTPSNLYKL | -0.487
HMKVEIVRVVKDIHIGDEITKDMVRTVEVGGYNLPDGVVKDTATVIGRFASADMVPGDYIISSKIADAP | -0.121
HMDLEELSNKMNNVFESLSSDLRDIIIMSDIEGLSYEEISHKINIPIGTVRSRLHRARDLMVRVIKEN | -0.513
HMRAPEIEAARSDLDVGQTVQIVRHLHGNQYEVFYRGAQWQAEAVGSSGANDAQTAVITGKNGNILLIQI | -0.0658
HMGPLSDRSVADWLLRLGLADTANNRLLLQVMHAAGLPLERTAVRAMRETAAGRPEGTDAREWLQAAAAAQ | -0.208
HMGEPLSPDARALTNVLRHYRGWAEPGELARKSGLGSRERVLTAAQSLVNAGLADIERGMVRPTAALMEVQ | 0.0805
HMSEVPVLVAKTDIKELELIDDRKVTLINVPQKFKMPGSFNSPEEVYNTIAAVPIKEGEQITKPRVTWP | 0.134
HMDMAYEVVKAFHDLQDYKDVKGGKVYHHYDVGDTYPRQGLDPAPDETRIEELLSSGNAQGVPLIAEV | 0.0503
HMADGTSIYAEREVLYVTSPTANTAKVYNVSGALVRTMTLSAGQTVRTALPAGFYVVALGNGNTHKVIV | -0.889
HMTYQHQSIIHRRTRGAILTAAKELLAESGISGTNMIEIADRAQVSRASLYNHFRDKHEVFLALVES | -0.677
HMSDRFLDQEGVALSTLRPSGTVVLDSGEHLDVVTRGEFIEQGERVKVIKAESTWYVVEQIN | -0.268
